The source of these data is article PMC4847859.

In this data set the test system is CdpR (Pseudomonas aeruginosa PAO1). Description: EMSA. (In EMSA bound probe runs differently from free probe, usually more slowly.)

Substance pqsH-p (pqsH-cdpR intergenic region) returned a K half of 500 nM.
